Data set [1] can be described thus: Cytidine deaminase activity of the AID protein ([3H]deoxycytidine to deoxyuridine, TLC). It is filed as biochemical. To be noted: AID-GST fusion protein 2 to 600 ng, pH 7.5, 2 to 4 hours. The protocol: A cytidine deaminase activity of AID was measured by the same method as in the previous report (J Biol. Chem. 270:14768-14775, 1995).
The purified AID-GST fusion protein prepared in the above (2, 4, 6, 8, 10, 20, 40, 60, 100, 200, 300, 400, and 600 ng) was incubated in the buffer (pH 7.5, the total amount 10 μl) containing 45 mM Tris with 3.3 μCi [^3H] deoxycytidine (24.8 Ci/mmol, DuPont) and 250 μM cytidine for 2 to 4 hours. The reaction was terminated by adding deoxycytidine (2 μl of 10 μg/ml) and deoxyuridine (2 μl of 10 μg/ml). Insoluble substances were removed by centrifugation, and the reaction mixture (4 μl) was subjected to the polyethylene imine-cellulose thin layer chromatography plate (VWR). The plate was developed in isopropyl alcohol/10% HCl (7:2 v/v). The plate was exposed to ultraviolet light (254 nm) for visualization and bands corresponding to deoxycytidine and deoxyuridine were collected, and added to Ultima Gold scintillation solution to be quantified by liquid scintillation photometer (Packard)

The test system of the next data set is AU-rich RNA (5-AU). As to the kind of experiment: Gel retardation assay, avidity to AU-rich RNA. Format: binding. From the text: Since the AID protein has a functional cytidine deaminase activity as well as a structural similarity to APOBEC-1, to examine RNA editing activity in the AID protein, avidity to AU-rich RNA (5-AU) and apoB RNA (which are RNA substrates for APOBEC-1) was examined.

B1: AID protein: activation-induced cytidine deaminase, novel mouse protein (SEQ ID NO:2), tested as purified GST fusion protein (protein)
chain: MDSLLMKQKKFLYHFKNVRWAKGRHETYLCYVVKRRDSATSCSLDFGHLRNKSGCHVELLFLRYISDWDLDPGRCYRVTWFTSWSPCYDCARHVAEFLRWNPNLSLRIFTARLYFCEDRKAEPEGLRRLHRAGVQIGIMTFKDYFYCWNTFVENRERTFKAWEGLHENSVRLTRQLRRILLPLYEVDDLRDAFRMLGF
modifications: left off: a dimerising Fc or GST
On to B1, for which, in data set [1], the cytidine deaminase activity entry was “concentration-dependent cytidine deaminase activity”. Moreover, the “avidity to AU-rich RNA (5-AU)” value with AU-rich RNA (5-AU) is reported as “did not show avidity”.

Source of the values: patent publication US7314621B2, “Cytidine deaminase” (Kyoto University, priority 1999, dated 2008).
